Assay results reported in patent US20220106400A1 (Bristol-Myers Squibb, published 2022).
Substitutions are numbered along the chain they refer to. In names and notes the source's numbering stands. Read-outs that look alike come from different tables or passages of the source.

B1: CD73.4-IgG2.5G1-KH (antibody)
heavy: QVQLVESGGGVVQPGRSLRLSCAASGFTFSNYGMHWVRQAPGKGLEWVAVILYDGSNKYYPDSVKGRFTISRDNSKNTLYLQMNSLRAEDTAVYYCARGGSSWYPDSFDIWGQGTMVTVSSASTKGPSVFPLAPSSRSTSESTAALGCLVKDYFPEPVTVSWNSGALTSGVHTFPAVLQSSGLYSLSSVVTVPSSNFGTQTYTCNVDHKPSNTKVDKTVERKCCVECPPCPAPPVAGPSVFLFPPKPKDTLMISRTPEVTCVVVDVSHEDPEVKFNWYVDGVEVHNAKTKPREEQYNSTYRVVSVLTVLHQDWLNGKEYKCKVSNKALPAPIEKTISKAKGQPREPQVYTLPPSREEMTKNQVSLTCLVKGFYPSDIAVEWESNGQPENNYKTTPPVLDSDGSFFLYSKLTVDKSRWQQGNVFSCSVMHEALHNHYTQKSLSLSPGK
light: not shown
notes: also called mAb-CD73.4-IgG2.5G1-KH; CD73.4-Vh-hHC-IgG2.5G1-KH
B2: CD73.4-IgG2-C219S-IgG1.1f (antibody)
heavy: B1 heavy with S135C, C223S, A330S, P331S
light: not shown
notes: also called CD73.4-IgG2CS-IgG1.1f; CD73.4-IgG2.3G1.1f-KH
B3: CD73.4-IgG2.5G1.1f-KH (antibody)
heavy: B1 heavy with A330S, P331S
light: not shown
notes: also called mAb-CD73.4-IgG2.5G1.1f-KH; CD73.4-Vh-hHC-IgG2.5G1.1f-KH
B4: CD73.4-IgG2.3G1-KH (antibody)
heavy: B1 heavy with S135C, C223S
light: not shown
notes: also called mAb-CD73.4-IgG2.3G1-KH; CD73.4-Vh-hHC-IgG2.3G1-KH
B5: CD73.4-IgG2.5 (antibody)
heavy: B1 heavy with K274Q, Y296F, Y300F, L309V, A327G, A339T, V397M
light: not shown
notes: also called mAb-CD73.4-IgG2.5; CD73.4-Vh-hHC-IgG2.5
B6: CD73.4-IgG2.3-plusTHT (antibody)
heavy: QVQLVESGGGVVQPGRSLRLSCAASGFTFSNYGMHWVRQAPGKGLEWVAVILYDGSNKYYPDSVKGRFTISRDNSKNTLYLQMNSLRAEDTAVYYCARGGSSWYPDSFDIWGQGTMVTVSSASTKGPSVFPLAPCSRSTSESTAALGCLVKDYFPEPVTVSWNSGALTSGVHTFPAVLQSSGLYSLSSVVTVPSSNFGTQTYTCNVDHKPSNTKVDKTVERKSCVETHTCPPCPAPPVAGPSVFLFPPKPKDTLMISRTPEVTCVVVDVSHEDPEVQFNWYVDGVEVHNAKTKPREEQFNSTFRVVSVLTVVHQDWLNGKEYKCKVSNKGLPAPIEKTISKTKGQPREPQVYTLPPSREEMTKNQVSLTCLVKGFYPSDIAVEWESNGQPENNYKTTPPMLDSDGSFFLYSKLTVDKSRWQQGNVFSCSVMHEALHNHYTQKSLSLSPGK
light: not shown
notes: also called mAb-CD73.4-IgG2.3-plusTHT; CD73.4-Vh-hHC-IgG2.3-plusTHT
B7: CD73.4-IgG2.5-plusTHT (antibody)
heavy: B6 heavy with C135S, S223C
light: not shown
notes: also called mAb-CD73.4-IgG2.5plusTHT/LC; CD73.4-Vh-hHC-IgG2.5plusTHT/LC
B8: CD73.4-IgG2.3-plusGGG (antibody)
heavy: B6 heavy with T227G, H228G, T229G
light: not shown
notes: also called mAb-CD73.4-IgG2.3-plusGGG; CD73.4-Vh-hHC-IgG2.3-plusGGG

Experiments:
[1] = molecular target: T1, human CD73 on human tumor cell lines (human, UniProt P21589 27-549); assay: cell-based or functional assay
T1 sequence (looked up): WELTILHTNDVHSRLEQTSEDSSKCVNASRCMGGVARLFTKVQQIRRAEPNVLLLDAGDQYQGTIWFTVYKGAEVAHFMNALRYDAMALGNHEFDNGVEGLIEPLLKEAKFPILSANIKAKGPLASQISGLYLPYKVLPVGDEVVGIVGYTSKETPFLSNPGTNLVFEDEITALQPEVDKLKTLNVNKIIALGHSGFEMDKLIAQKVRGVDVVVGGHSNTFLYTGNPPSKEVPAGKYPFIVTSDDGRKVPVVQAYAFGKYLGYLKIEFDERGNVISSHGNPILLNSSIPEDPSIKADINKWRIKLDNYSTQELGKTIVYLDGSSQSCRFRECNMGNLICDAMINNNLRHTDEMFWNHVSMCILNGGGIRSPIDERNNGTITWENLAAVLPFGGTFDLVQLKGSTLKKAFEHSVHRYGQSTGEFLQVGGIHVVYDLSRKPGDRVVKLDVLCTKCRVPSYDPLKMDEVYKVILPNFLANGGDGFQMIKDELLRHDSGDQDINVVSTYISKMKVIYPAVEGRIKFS

[2] = molecular target: T1, human CD73 on human tumor cell lines; assay: cell-based or functional assay; remark: listed apart in the source
[3] = molecular target: T2, full length extracellular domain of human-CD73 with C-terminal polyhistidine tag (residues 26-546) (human, UniProt P21589 26-546); assay: SEC, 1:1 molar mix 5.5 uM each
T2 construct: range 26-546; also called hCD73-his; CD73-his
T2 sequence (looked up): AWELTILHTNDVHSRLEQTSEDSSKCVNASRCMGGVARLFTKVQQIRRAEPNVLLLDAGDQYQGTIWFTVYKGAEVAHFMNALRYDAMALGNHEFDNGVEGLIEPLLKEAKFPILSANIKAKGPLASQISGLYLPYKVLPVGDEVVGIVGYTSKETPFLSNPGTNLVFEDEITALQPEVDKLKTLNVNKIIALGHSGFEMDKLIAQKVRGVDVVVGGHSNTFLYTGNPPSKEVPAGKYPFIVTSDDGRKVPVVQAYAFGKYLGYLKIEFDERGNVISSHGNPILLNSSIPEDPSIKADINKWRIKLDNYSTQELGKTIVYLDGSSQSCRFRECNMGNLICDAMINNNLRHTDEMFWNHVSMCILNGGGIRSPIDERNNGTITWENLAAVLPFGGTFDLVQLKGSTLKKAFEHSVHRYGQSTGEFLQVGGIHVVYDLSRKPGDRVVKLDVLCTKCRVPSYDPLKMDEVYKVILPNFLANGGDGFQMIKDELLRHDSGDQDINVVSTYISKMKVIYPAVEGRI
Description: The oligomeric state of CD73/antibody complexes were examined by size-exclusion chromatography coupled to an in-line multi-angle light scattering detector (SEC-MALS). Isocratic separations were performed on a Shodex PROTEIN KW-803 column connected to an Prominence Shimadzu UFLC in buffer containing 200 mM K₂HPO₄, 150 mM NaCl, pH 6.8, containing 0.02% Na azide (0.1 μm filtered) running at 0.5 mL/min. Samples were injected onto the column using a SIL-20AC Prominence Shimadzu autosampler, and data were obtained from three online detectors connected in series: a Prominence SPD-20AD diode array UV/vis spectrophotometer followed by a Wyatt miniDAWN™ TREOS Multi-Angle Light Scattering Detector then a Wyatt Optilab T-rEX Refractive Index Detector. Data were collected and analyzed using Astra (Wyatt) and Labsolutions (Shimadzu) software.
CD73.4 antibodies having the heavy chain constant regions set forth in Table 14 were also tested for formation of high molecular weight complexes by SEC-MALS and DLS experiments, as described in Example 3.

| Binder | T1/2 internalization, Calu6 [1] [min] | T1/2 internalization, NCI-H292 [1] [min] | Ymax internalization, Calu6 [1] [%] | Ymax internalization, NCI-H292 [1] [%] | T1/2 internalization, Calu6 [2] [min] | T1/2 internalization, NCI-H292 [2] [min] | T1/2 internalization, NCI-H1437 [2] [min] | T1/2 internalization, NCI-H1437 (no wash) [2] [min] | T1/2 internalization, SNU-C1 [2] [min] | T1/2 internalization, SNU-C1 (no wash) [2] [min] | Ymax internalization, Calu6 [2] [%] | Ymax internalization, NCI-H292 [2] [%] | UV % Peak1 <12.9 min [3] [%] | UV % Peak4 16.7-19.3 min (free mAb) [3] [%] | UV % Peak5 >19.3 min [3] [%] |
| --- | --- | --- | --- | --- | --- | --- | --- | --- | --- | --- | --- | --- | --- | --- | --- |
| B1 | 17 | 15.4 | 76 | 90.8 |  |  |  |  |  |  |  |  |  |  |  |
| B2 | 21 | 16.6 | 81 | 90.3 | 34 | 15.8 | 19 | 20.5 | 29.7 | 61.5 | 76.8 | 77.6 |  |  |  |
| B3 | 21.2 | 18 | 79.6 | 90.9 |  |  |  |  |  |  |  |  |  |  |  |
| B4 | 23.8 | 16.8 | 81.6 | 91.6 |  |  |  |  |  |  |  |  |  |  |  |
| B5 | 20.9 | 18.3 | 79 | 89.6 |  |  |  |  |  |  |  |  |  |  |  |
| B6 | 21.3 | 17.6 | 81.2 | 91.4 |  |  |  |  |  |  |  |  | 30.6 | 33.7 | 3.2 |
| B7 | 17.2 | 15.4 | 80.2 | 89.6 |  |  |  |  |  |  |  |  |  |  |  |
| B8 | 20.1 | 16.3 | 81.7 | 91.6 |  |  |  |  |  |  |  |  |  |  |  |
